The text below walks through data of patent US6307035, “BRCA1 associated polynucleotide (BAP-1) and uses therefor” (The Wistar Institute of Anatomy and Biology, dated 2001).

Experiment [1] concerns the target GST (glutathione-S-transferase alone) (Schistosoma japonicum (Blood fluke), UniProt P08515 = GST). Briefly: GST pull-down, SDS-PAGE and fluorography.
Another experiment deals with full length BRCA1 (human, UniProt P38398). Briefly: GST pull-down, SDS-PAGE and fluorography.

B1: LexA-BRCA1-RF fusion construct (amino-terminal 100 amino acids of human BRCA1, wild type, fused to the LexA DNA-binding domain) (other)
chain: MDLSALRVEEVQNVINAMQKILECPICLELIKEPVSTKCDHIFCKFCMLKLLNQKKGPSQCPLCKNDITKRSLQESTRFSQLVEELLKIICAFQLDTGLE
For the molecule B1, in experiment [1], the binding result is on record as “no binding”.

B2: GST-hBAP1(483-594 of SEQ ID NO: 2) fusion protein lacking the minimal interaction domain (other)
chain: QPSPTPSNESTDTASEIGSAFNSPLRSPIRSANPTRPSSPVTSHISKVLFGEDDSLLRVDCIRYNRAVRDLGPVISTGLLHLAEDGVLSPLALTEGGKGSSPSIRPIQGSQG
For B2, the binding result with full length BRCA1 is reported as “no binding”.
